Results on one molecule are retold here after patent publication US20230406948A1 (APEXIGEN, published 2023).

In test [1] the target is T1, human CD40 on cells (native CD40 on Ramos cells, human B cells, human monocyte-derived dendritic cells); cell … (human, UniProt P25942 21-193).
T1 construct: Endogenous CD40 on human cells; also called native CD40 protein; CD40 positive cells
The experiment in a line: FACS on live Ramos cells, goat anti-human IgG PE. As to the method:
In another experiment, the ability of the CD40 antibodies to bind to native CD40 protein was determined by FACS analysis with live Ramos cells. Ramos cells were harvested and blocked with 1.5 ml blocking buffer (0.1% BSA/PBS) for 30 minutes. Antibodies at various concentrations were added to cells and incubated for 1 hour. After washing, 50 ul Goat-anti-human IgG (H+L) PE antibody at 1:1000 dilution in blocking solution was added and incubated for 30 minutes. Cells were then washed with PBS and were re-suspended with […] and analyzed by FACS. The antibodies tested were the 19-21 rabbit anti-CD40 agonist antibody, SGN-40 developed by Seattle Genetics and CP870893 from Pfizer.

The next test deals with T2, mouse CD40 (mouse, UniProt P27512 20-193, limits assumed).
T2 construct: Coated on ELISA plates at 1 ug/ml
T2 sequence (P27512 20-193 limits assumed): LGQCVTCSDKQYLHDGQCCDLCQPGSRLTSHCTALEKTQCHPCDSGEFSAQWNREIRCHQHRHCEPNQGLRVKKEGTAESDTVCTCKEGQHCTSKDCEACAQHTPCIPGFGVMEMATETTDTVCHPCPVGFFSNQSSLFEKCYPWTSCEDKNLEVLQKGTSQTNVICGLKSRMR
The experiment in a line: direct ELISA according to paragraph 284 (1 ug/ml mouse CD40 coated, goat anti-human IgG-HRP); y axis of the sheet reads MFI. The method, then: Cross-reactivity was assessed by direct ELISA. A total of 1 μg/ml of human CD40, monkey CD40 or mouse CD40 was coated on ELISA plates followed by incubation with 1 μg/ml of APX005 or control IgG1. Antibodies bound to CD40 were detected using goat anti-human IgG conjugated with HRP. APX005 clearly crossreacts with monkey CD40 but not mouse CD40. (FIG. 11A)

In test [2] the target is T1, human CD40 on cells (native CD40 on …). Put plainly: FACS on Ramos cells, 4 h at 37 C, Alexa 488 goat anti-human IgG. The method, then: In order to assess the target mediated-internalization of APX005 for evaluating its impact on ADCC activity, Ramos cells were incubated with APX005 for 4 h at 37° C., a temperature permissive for internalization, or at 4° C. for 30 minutes, a temperature at which internalization is minimized. Cells were washed with staining buffer, followed by incubation with Alexa 488 labeled goat anti-human IgG for an additional 30 minutes at 4° C. FACS analysis was performed to examine the level of APX005 on the cell surface.

The target is the same in test [3]. Put plainly: cell-based or functional assay.
For test [4], the target named is T3, fusion protein of rabbit Fc and TweakR (UniProt Q9NP84 28-80, limits assumed).
T3 construct: Neither the species nor the order of the parts is stated; not shown: rabbit Fc
The experiment in a line: direct ELISA, 1 ug/ml rabbit Fc-TweakR fusion coated, goat anti-human IgG-HRP. The method, then: Binding selectivity of APX005 was assessed by direct ELISA to a panel of TNFR family proteins. A total of 1 μg/ml of fusion protein of rabbit Fc and CD40, RANK, TweakR, OX40, DR5 and 4-1 BB were coated on ELISA plates. Bound APX005 was detected using goat anti-human HRP-conjugated IgG.
(In general: In an ELISA, binding on a coated surface is turned into a signal by an enzyme label.)

Test [5] addresses T4, CD40 CLIPS peptide, residues 84-102 of CD40 (84TCEEGWHCTSEACESCVLH102) (human, linker (positions not given here) via CLIPS template (1,3-bis(bromomethyl)benzene); also: cysteine side chains coupled to CLIPS template(s), solid-phase bound peptide of Pepscan array).
T4 construct: It is the unmutated control peptide of the mutagenesis set
T4 peptide: TCEEGWHCTSEACESCVLH
The experiment in a line: PEPSCAN-based ELISA on solid-phase CLIPS peptides. The source says:
To reconstruct discontinuous epitopes of the target molecule a library of structured peptides was synthesized. This was done using Pepscan's proprietary Chemically Linked Peptides on Scaffolds (CLIPS™) technology (Pepscan Presto, Lelystad The Netherlands) (see e.g., Timmerman et al. (2007). J. Mol. Recognit. 20:283-99; Slootstra et al. (1996). Molecular Diversity 1: 87-96). CLIPS™ technology provides the ability to structure peptides into single loops, double-loops, triple loops, sheet-like folds, helix-like folds and combinations thereof. CLIPS™ templates are coupled to cysteine residues. For this experiment, the side-chains of multiple cysteines in the peptides were coupled to one or two CLIPS™ templates. […]
The binding of antibody to each of the synthesized peptides was tested in a PEPSCAN-based ELISA. […] After one hour, the color development was measured. The color development was quantified with a charge coupled device (CCD)—camera and an image processing system.

Test [6] addresses T5, mouse CD40 on mouse A20 cells (mouse, UniProt P27512 20-289).
T5 construct: whole, on cells
The experiment in a line: FACS on mouse A20 cells, goat anti-human IgG (H+L) R-PE. The method, then:
Cross-reactivity of APX005 with mouse CD40 was further determined by FACS binding to a mouse A20 cell line which expresses mouse CD40. An aliquot of 0.5×10⁶ A20 cells was added to 96 well plates and incubated with 100 μl diluted rat anti-mouse CD40 antibody conjugated with PE, APX005 or IgG1 control antibodies. After washing, 100 μl Goat-anti human IgG (H+L) conjugated with R-PE (Southern Biotech CAT #2040-09) were added at 1:200 dilution in PBS to the sample and incubated for detection of APX005 and control human IgG1. A rat anti-mouse CD40 antibody conjugated with PE was used as positive control. Samples were re-suspended with 0.5 ml PBS and analyzed by FACS.

No end group written: not given here.

Usually EC50 (read off the curve) stands for the midpoint of the concentration-response curve. The low end stands for a more potent agent, the high end for a less potent agent.

T1 sequence (P25942 21-193): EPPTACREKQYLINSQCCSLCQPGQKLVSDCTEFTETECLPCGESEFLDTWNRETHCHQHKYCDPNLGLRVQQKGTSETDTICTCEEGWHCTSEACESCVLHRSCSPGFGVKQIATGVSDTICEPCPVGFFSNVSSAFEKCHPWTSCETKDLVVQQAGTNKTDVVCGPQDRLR
T5 sequence (P27512 20-289): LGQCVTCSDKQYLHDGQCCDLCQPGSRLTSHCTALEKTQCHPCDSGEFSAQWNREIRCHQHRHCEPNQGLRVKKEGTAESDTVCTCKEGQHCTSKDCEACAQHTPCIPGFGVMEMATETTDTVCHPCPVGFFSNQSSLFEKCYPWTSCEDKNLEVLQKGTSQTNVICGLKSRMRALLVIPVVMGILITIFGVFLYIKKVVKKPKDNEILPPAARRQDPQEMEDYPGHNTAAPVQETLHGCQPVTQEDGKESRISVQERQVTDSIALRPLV

B1: APX005, humanized version of the R-8 rabbit anti-CD40 antibody (antibody, IgG1, V domains shown)
VH: QVQLVESGGGVVQPGRSLRLSCAASGFSFSSTYVCWVRQAPGKGLEWIACIYTGDGTNYSASWAKGRFTISKDSSKNTVYLQMNSLRAEDTAVYFCARPDITYGFAINFWGPGTLVTVSS
VL: DIQMTQSPSSLSASVGDRVTIKCQASQSISSRLAWYQQKPGKPPKLLIYRASTLASGVPSRFSGSGSGTDFTLTISSLQPEDVATYYCQCTGYGISWPIGGGTKVEIK
notes: also called humanized R-8; APX005 wild type
Take B1: the “fold higher affinity than CP870893” value in test [1] was determined as 6 fold. Further, the binding result with mouse CD40 is recorded as “no binding”; in test [4], “no binding”; in test [5] it was “binds”; in test [6], “no binding (tested: 10000 ng/ml)”. Also, in test [2], the “EC50 (read off the curve)” value is around 0.05 µg/mL. In addition, the “EC50 (ng/ml), CD40 agonist activity: up-regulation of CD86 on human B cells” value in test [3] stood at 24.4 ng/mL.
